{"source": "patent US20240293499A1", "about": "(SUNNYBROOK RESEARCH INSTITUTE, published 2024)", "binders": {"B1": {"name": "rat anti-hmVISTA mAb 7C7 (antibody, V domains shown)", "VH": "EVQLVESGGGLVQPGRSLKLSCVASGFTFNKYWMSWTRQAPGKGLEWVASITNSGGNTYYPDSVKGRFTISRDNAQNTLYLQMNSLRSEDTATYYCTLGVDYWGQGAMVTVSS", "VL": "DVVMTQTPPSLSVTIGQSVSISCKSSQSLVYSDGKTYLHWLLQSSGRSPKRLIYQVSNLASGVPDRFSGTGSQKDFTLKISRVEAKDLGVYYCAQTTHFPYTFGAGTKLEMK", "notes": "Variable regions only; Rat IgG2a from hybridoma"}, "B2": {"name": "murine anti-hVISTA mAb 8G10 (antibody, V domains shown)", "VH": "QVQLQQSGAELVRPGASVTLSCKASGYTFTDYEMHWVKQTPVHGLEWIGAIDPETGGTAYNQKFKGKATLTADKSSSTAYMELRSLTSEDSAVYYCTRWSLRPYAMDYWGQGTSVTVSS", "VL": "DVVMTHTPLSLPVSLGDQASISCRSSQSLVHNNGNTYLHWYLQKPGQSPKLLIYKVSNRFSGVPDRFSGSGSGTDFTLKISRVEAEDLGLYFCSQSTHVPWTFGGGTKLEIK", "notes": "Variable regions only, although headed 'Heavy Chain' and 'Light Chain'; Mouse IgG1 from hybridoma"}, "B3": {"name": "anti-hVISTA nanobody hVISTANb1 (VHH)", "VHH": "QVQLQESGGGLVQPGGSLRLSCAASGSVGTIFSMGWFRQAPGVQREMVATITNSGETNYAAFVKGRFTISRDNAENTVYLQMNSLKPEDTAAYYCNAFDYVGGRTYELPYWGQGTQVTVSS", "notes": "Llama nanobody made in E. coli WK6, purified by IMAC, detected with anti-HA"}, "B4": {"name": "murine anti-hVISTA mAb 7G5 (antibody, V domains shown)", "VH": "QIQLVQSGPELKKPGETVKISCKASGYTFTNYGMNWVKQAPEKGLKWMGWINTYTGEPTYADDFKGRFAFSLETSASTAYLQINNLKNEDTATYFCARRSNPWPNDYWGQGTSLTVSS", "VL": "DIQMTQSPSSFSASLGERVSLTCRASQEISGYLSWLQQKPDGTIKRLIYAASTLDSGVPKRFSGSRSGSDYSLTISSLESEDFADYYCLQYASYPWTFGGGTKLEIK", "notes": "as for B2"}, "B5": {"name": "murine anti-hVISTA mAb 7E12 (antibody, V domains shown)", "VH": "DVHLQESGPGLVKPSQSLSLTCSVTGYSITSGYYWNWIRQFPGNKLEWMGYISYDGNNNYNPSLKNRISITRDTSKNQFFLKLNSVTTEDTATYYCARGDYGSEAMDYWGQGTSVTVSS", "VL": "DIRVTQSPASLAVSLGQRATISCRASKSVSTSGYSYMNWYQQKPGQPPQLLIYLASNLESGVPARFSGSGSGTDFTLNIHPVEEEDAAIYYCQHSRELPWTFGGGTKLEIK", "notes": "Mouse IgG1 purified from hybridoma"}}, "key": {"[1]": {"target": "T1, hVISTA-COMP-his, pentameric form comprising the extracellular IgV domain of human VISTA (human, UniProt Q9H7M9 33-194)", "T1 construct": "domain: extracellular IgV domain; not shown: his tag", "assay": "SPR (BIAcore T200), single-cycle kinetics, hVISTA-COMP-his captured on anti-His chip, mAb injected at 20, 40, 80, 160, 320 nM, 1:1 fit", "protocol": "(§1) Binding kinetics of mAbs and Nbs to hVISTA and mVISTA were obtained by surface plasmon resonance (SPR) using a BIAcore T200 (Cytiva) and HBS running buffer (20 mM of HEPES pH 7.4, 150 mM NaCl, 0.005% Tween-20, 3.4 mM EDTA). Briefly, anti-histidine antibodies were immobilized on a CM5 chip (29149604; Cytiva) using the His capture kit (28995056; Cytiva) following manufacture's protocol. For mAbs, VISTA was captured by flowing […] of hVISTA-COMP-his or mVISTA-COMP-his at a flow rate of 30 μL/min. Sensorgrams were collected using single-cycle kinetics covering five mAb concentrations (1:2 serial dilutions). For Nbs, solutions of each nanobody ([…]) were flown over an anti-histidine-coated chip. Five concentrations (1:2 serial dilutions) of hVISTA-Fc (produced in house) were then injected at a flow rate of 30 μL/min. KD, Kₒₙ, and Koff were calculated by analyzing the sensorgrams with a 1:1 Langmuir binding model²³ after subtracting reference sensorgrams."}, "[2]": {"target": "T1, hVISTA-COMP-his, pentameric form …", "assay": "SPR (BIAcore T200), single-cycle kinetics; hVISTA-COMP-his captured on anti-His chip, mAb as analyte; 1:1 Langmuir fit", "protocol": "as §1"}, "[3]": {"target": "T2, mVISTA-COMP-his, pentameric form comprising the extracellular IgV domain of murine VISTA (mouse, UniProt Q9D659 33-191)", "T2 construct": "domain: extracellular IgV domain; Captured on an anti-histidine chip for SPR of the mAbs; also called recombinant mouse VISTA; not shown: his tag", "T2 sequence (Q9D659 whole entry, looked up)": "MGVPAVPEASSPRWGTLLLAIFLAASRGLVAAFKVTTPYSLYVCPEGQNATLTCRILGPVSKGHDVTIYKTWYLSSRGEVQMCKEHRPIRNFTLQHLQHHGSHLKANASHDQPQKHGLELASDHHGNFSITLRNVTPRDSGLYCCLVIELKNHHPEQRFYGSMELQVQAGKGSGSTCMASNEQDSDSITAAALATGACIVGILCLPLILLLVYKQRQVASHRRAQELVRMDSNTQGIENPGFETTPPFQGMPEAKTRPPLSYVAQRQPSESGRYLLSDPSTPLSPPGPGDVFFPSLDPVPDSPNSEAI", "assay": "SPR (BIAcore T200), single-cycle kinetics; mVISTA-COMP-his captured on anti-His chip, mAb as analyte; 1:1 Langmuir fit", "protocol": "as §1"}, "[4]": {"target": "T2, mVISTA-COMP-his, pentameric form …", "assay": "SPR (BIAcore T200), single-cycle kinetics, mVISTA-COMP-his captured on anti-His chip, mAb injected at 20, 40, 80, 160, 320 nM, 1:1 fit", "protocol": "as §1"}, "[5]": {"target": "T1, hVISTA-COMP-his, pentameric form …", "assay": "SPR (BIAcore T200), single-cycle kinetics, hVISTA-COMP-his captured on anti-His chip, mAb injected at 2, 4, 8, 16, 32 nM, 1:1 fit", "protocol": "as §1"}, "[6]": {"target": "T3, human VISTA on primary human immune cells (CD14+CD16- classical monocytes of PBMCs) (human, UniProt Q9H7M9 33-311)", "T3 construct": "whole, on cells; Native protein on donor cells; also called hVISTA", "T3 sequence (looked up)": "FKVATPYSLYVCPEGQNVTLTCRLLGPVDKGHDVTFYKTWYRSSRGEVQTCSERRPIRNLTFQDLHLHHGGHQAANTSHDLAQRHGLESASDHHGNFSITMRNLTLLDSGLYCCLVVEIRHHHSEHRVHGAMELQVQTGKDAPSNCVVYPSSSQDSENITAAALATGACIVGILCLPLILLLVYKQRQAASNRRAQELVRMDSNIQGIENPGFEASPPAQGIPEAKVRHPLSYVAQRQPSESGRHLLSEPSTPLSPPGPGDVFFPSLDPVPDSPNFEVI", "assay": "flow cytometry on human PBMC, gate CD14+CD16- monocytes, ΔMFI against isotype control, 5 donors; representative histogram against mIgG", "protocol": "(§2) Binding of mAbs and Nbs to human and murine immune cells were tested using human PBMCs and mouse splenocytes. For binding on human cells, whole human blood was obtained from donors in accordance with guidelines set forth by the Sunnybrook Research Ethics board (REB approval number 443-2017). Human peripheral blood mononuclear cells (PMBCs) were isolated from whole blood using Ficoll Paque PLUS (1.077 g/ml) (17144003; Cytiva). PBMCs had their Fc receptors blocked with Human TruStain FcX (422301; BioLegend) then incubated with 2.5 μg of mAb, mouse IgG1 (401408; BioLegend), or rat IgG2a (400565; BioLegend) or 15 μg Nb for 1 hour at 4° C. After washing with PBS, the PBMCs were incubated with secondary antibodies (1 μL; FITC anti-mouse IgG1, FITC anti-HA, or FITC anti-rat IgG2a; 406605, 901507, or MRG2a-83; BioLegend) or control FITC anti-VISTA antibodies (clone B7H5DS8; 11-1088-42; eBioscience) for 40 minutes at 4° C. […] Finally, the PBMCs were washed and resuspended in 3 μM DAPI (D1306; Thermo Fisher Scientific) and cytometric profiles recorded using a BD LSR II flow cytometer (BD) maintained by The Centre for Flow Cytometry & Scanning Microscopy (CCSM) at Sunnybrook Research Institute (SRI; Sunnybrook Health Sciences Centre, Toronto, ON, Canada). […]"}, "[7]": {"target": "T4, hVISTA-Fc (produced in house) (human, UniProt Q9H7M9 33-194, limits assumed)", "T4 construct": "Analyte in the SPR of the nanobodies; not shown: Fc", "T4 sequence (looked up)": "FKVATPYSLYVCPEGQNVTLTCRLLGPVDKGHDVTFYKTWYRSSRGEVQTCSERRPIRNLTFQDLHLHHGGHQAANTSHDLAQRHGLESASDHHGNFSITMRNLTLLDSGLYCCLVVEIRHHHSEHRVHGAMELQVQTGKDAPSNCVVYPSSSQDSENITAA", "assay": "SPR (BIAcore T200), single-cycle kinetics; Nb captured on anti-His chip, hVISTA-Fc as analyte; 1:1 Langmuir fit", "protocol": "as §1"}, "[8]": {"target": "T4, hVISTA-Fc (produced in house)", "assay": "SPR (BIAcore T200), single-cycle kinetics, Nb captured on anti-His chip, hVISTA-Fc injected at 1.9, 3.8, 7.5, 15, 30 nM, 1:1 fit", "protocol": "as §1"}, "[9]": {"target": "T3, human VISTA on primary human immune …", "assay": "flow cytometry on human PBMC, gate CD14+CD16- monocytes, ΔMFI against isotype control, 5 donors", "protocol": "as §2"}, "[10]": {"target": "T1, hVISTA-COMP-his, pentameric form …", "assay": "SPR (BIAcore T200), single-cycle kinetics, hVISTA-COMP-his captured on anti-His chip, mAb injected at 1, 2, 4, 8, 16 nM, 1:1 fit", "protocol": "as §1"}, "[11]": {"target": "T1, hVISTA-COMP-his, pentameric form …", "assay": "SPR (BIAcore T200), single-cycle kinetics, hVISTA-COMP-his captured on anti-His chip, mAb injected at 0.5, 1, 2, 4, 8 nM, 1:1 fit", "protocol": "as §1"}}}
{"binder": "B1", "values": [{"measurement": "Kd", "setting": "[1]", "value": 49.4, "unit": "nM"}, {"measurement": "koff", "setting": "[1]", "value": 2.2, "unit": "s⁻¹"}, {"measurement": "kon", "setting": "[1]", "value": "4.45e+07", "unit": "M⁻¹ s⁻¹"}, {"measurement": "Kd", "setting": "[2]", "value": 49, "unit": "nM"}, {"measurement": "Kd", "setting": "[3]", "value": 51, "unit": "nM"}, {"measurement": "Kd", "setting": "[4]", "value": 50.5, "unit": "nM"}, {"measurement": "koff", "setting": "[4]", "value": 0.002, "unit": "s⁻¹"}, {"measurement": "kon", "setting": "[4]", "value": 39600, "unit": "M⁻¹ s⁻¹"}]}
{"binder": "B2", "values": [{"measurement": "Kd", "setting": "[5]", "value": 0.98, "unit": "nM"}, {"measurement": "koff", "setting": "[5]", "value": 0.000111, "unit": "s⁻¹"}, {"measurement": "kon", "setting": "[5]", "value": 113000, "unit": "M⁻¹ s⁻¹"}, {"measurement": "binding result", "setting": "[6]", "value": "binds"}, {"measurement": "Kd", "setting": "[2]", "value": 0.98, "unit": "nM"}]}
{"binder": "B3", "values": [{"measurement": "Kd", "setting": "[7]", "value": 11, "unit": "nM"}, {"measurement": "Kd", "setting": "[8]", "value": 10.8, "unit": "nM"}, {"measurement": "koff", "setting": "[8]", "value": 0.00109, "unit": "s⁻¹"}, {"measurement": "kon", "setting": "[8]", "value": 102000, "unit": "M⁻¹ s⁻¹"}]}
{"binder": "B4", "values": [{"measurement": "binding result", "setting": "[9]", "value": "binds"}, {"measurement": "Kd", "setting": "[2]", "value": 0.14, "unit": "nM"}, {"measurement": "Kd", "setting": "[10]", "value": 0.136, "unit": "nM"}]}
{"binder": "B5", "values": [{"measurement": "Kd", "setting": "[11]", "value": 0.442, "unit": "nM"}, {"measurement": "koff", "setting": "[11]", "value": 0.000123, "unit": "s⁻¹"}, {"measurement": "kon", "setting": "[11]", "value": 279000, "unit": "M⁻¹ s⁻¹"}, {"measurement": "Kd", "setting": "[2]", "value": 0.44, "unit": "nM"}]}
